Data from paper PMC3082181 (The Journal of Cell Biology, 2011).

T1: Flag-Munc18c-Y521F (mouse, UniProt Q60770 1-592, Y521F)
T1 sequence: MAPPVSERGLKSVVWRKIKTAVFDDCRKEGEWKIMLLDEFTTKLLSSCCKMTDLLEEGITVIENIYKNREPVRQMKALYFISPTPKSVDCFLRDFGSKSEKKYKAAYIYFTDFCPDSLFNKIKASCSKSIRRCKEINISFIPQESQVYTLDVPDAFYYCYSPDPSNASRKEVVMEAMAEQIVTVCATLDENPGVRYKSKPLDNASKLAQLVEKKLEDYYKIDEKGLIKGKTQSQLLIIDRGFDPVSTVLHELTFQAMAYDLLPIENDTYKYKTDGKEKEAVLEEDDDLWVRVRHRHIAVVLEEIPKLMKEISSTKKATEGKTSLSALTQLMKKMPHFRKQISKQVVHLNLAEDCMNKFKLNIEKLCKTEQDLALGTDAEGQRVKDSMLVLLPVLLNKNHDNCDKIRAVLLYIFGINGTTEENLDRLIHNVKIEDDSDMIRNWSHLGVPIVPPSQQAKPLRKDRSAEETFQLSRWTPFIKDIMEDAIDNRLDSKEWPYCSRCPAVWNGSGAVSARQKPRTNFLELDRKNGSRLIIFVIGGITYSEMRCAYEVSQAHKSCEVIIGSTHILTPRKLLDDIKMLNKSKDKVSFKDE

T2: Flag-Munc18c-Y219F (mouse, UniProt Q60770 1-592, Y219F)
T2 sequence: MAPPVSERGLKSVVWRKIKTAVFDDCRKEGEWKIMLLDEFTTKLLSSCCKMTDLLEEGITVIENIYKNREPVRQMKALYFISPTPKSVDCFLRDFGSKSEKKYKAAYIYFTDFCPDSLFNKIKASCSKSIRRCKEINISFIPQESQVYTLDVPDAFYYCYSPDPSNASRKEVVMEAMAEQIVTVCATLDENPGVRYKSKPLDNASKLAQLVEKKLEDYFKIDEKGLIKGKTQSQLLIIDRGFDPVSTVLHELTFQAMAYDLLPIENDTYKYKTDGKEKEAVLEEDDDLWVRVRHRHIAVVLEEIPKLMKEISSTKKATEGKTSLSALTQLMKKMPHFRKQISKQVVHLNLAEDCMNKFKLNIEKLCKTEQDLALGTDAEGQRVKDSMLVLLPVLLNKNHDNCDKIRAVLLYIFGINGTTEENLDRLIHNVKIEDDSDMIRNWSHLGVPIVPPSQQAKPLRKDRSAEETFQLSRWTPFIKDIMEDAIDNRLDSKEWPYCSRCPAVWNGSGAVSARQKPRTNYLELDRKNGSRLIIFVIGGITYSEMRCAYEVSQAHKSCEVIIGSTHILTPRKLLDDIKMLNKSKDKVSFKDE

T3: Munc18c (mouse (endogenous in 3T3-L1 adipocytes …, UniProt Q60770 1-592))
T3 sequence: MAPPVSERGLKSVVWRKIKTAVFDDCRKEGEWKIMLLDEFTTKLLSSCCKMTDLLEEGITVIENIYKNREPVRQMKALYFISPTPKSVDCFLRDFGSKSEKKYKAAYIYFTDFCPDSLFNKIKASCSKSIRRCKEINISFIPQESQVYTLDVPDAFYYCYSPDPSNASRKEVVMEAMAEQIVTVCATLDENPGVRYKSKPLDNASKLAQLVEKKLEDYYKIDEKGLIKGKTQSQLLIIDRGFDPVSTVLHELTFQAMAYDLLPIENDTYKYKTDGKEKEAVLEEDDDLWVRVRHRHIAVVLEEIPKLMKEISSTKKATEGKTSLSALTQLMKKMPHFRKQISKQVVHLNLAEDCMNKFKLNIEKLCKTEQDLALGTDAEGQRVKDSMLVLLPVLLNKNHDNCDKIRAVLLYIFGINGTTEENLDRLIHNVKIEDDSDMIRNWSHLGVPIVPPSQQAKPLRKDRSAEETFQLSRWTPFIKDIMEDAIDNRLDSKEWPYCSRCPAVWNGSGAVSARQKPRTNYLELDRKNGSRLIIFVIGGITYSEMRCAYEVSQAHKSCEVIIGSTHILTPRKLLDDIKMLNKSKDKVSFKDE

B1: full-length syntaxin 4 (natural protein)
chain: MRDRTHELRQGDNISDDEDEVRVALVVHSGAARLSSPDDEFFQKVQTIRQTMAKLESKVRELEKQQVTILATPLPEESMKQGLQNLREEIKQLGREVRAQLKAIEPQKEEADENYNSVNTRMKKTQHGVLSQQFVELINKCNSMQSEYREKNVERIRRQLKITNAGMVSDEELEQMLDSGQSEVFVSNILKDTQVTRQALNEISARHSEIQQLERSIRELHEIFTFLATEVEMQGEMINRIEKNILSSADYVERGQEHVKIALENQKKARKKKVMIAICVSVTVLILAVIIGITITVG
B2: insulin receptor (receptor)
chain 1: HLYPGEVCPGMDIRNNLTRLHELENCSVIEGHLQILLMFKTRPEDFRDLSFPKLIMITDYLLLFRVYGLESLKDLFPNLTVIRGSRLFFNYALVIFEMVHLKELGLYNLMNITRGSVRIEKNNELCYLATIDWSRILDSVEDNYIVLNKDDNEECGDVCPGTAKGKTNCPATVINGQFVERCWTHSHCQKVCPTICKSHGCTAEGLCCHKECLGNCSEPDDPTKCVACRNFYLDGQCVETCPPPYYHFQDWRCVNFSFCQDLHFKCRNSRKPGCHQYVIHNNKCIPECPSGYTMNSSNLMCTPCLGPCPKVCQILEGEKTIDSVTSAQELRGCTVINGSLIINIRGGNNLAAELEANLGLIEEISGFLKIRRSYALVSLSFFRKLHLIRGETLEIGNYSFYALDNQNLRQLWDWSKHNLTITQGKLFFHYNPKLCLSEIHKMEEVSGTKGRQERNDIALKTNGDQASCENELLKFSFIRTSFDKILLRWEPYWPPDFRDLLGFMLFYKEAPYQNVTEFDGQDACGSNSWTVVDIDPPQRSNDPKSQTPSHPGWLMRGLKPWTQYAIFVKTLVTFSDERRTYGAKSDIIYVQTDATNPSVPLDPISVSNSSSQIILKWKPPSDPNGNITHYLVYWERQAEDSELFELDYCLKGLKLPSRTWSPPFESDDSQKHNQSEYDDSASECCSCPKTDSQILKELEESSFRKTFEDYLHNVVFVPRPS
chain 2: SLEEVGNVTATTLTLPDFPNVSSTIVPTSQEEHRPFEKVVNKESLVISGLRHFTGYRIELQACNQDSPDERCSVAAYVSARTMPEAKADDIVGPVTHEIFENNVVHLMWQEPKEPNGLIVLYEVSYRRYGDEELHLCVSRKHFALERGCRLRGLSPGNYSVRVRATSLAGNGSWTEPTYFYVTDYLDVPSNIAKIIIGPLIFVFLFSVVIGSIYLFLRKRQPDGPMGPLYASSNPEYLSASDVFPSSVYVPDEWEVPREKITLLRELGQGSFGMVYEGNAKDIIKGEAETRVAVKTVNESASLRERIEFLNEASVMKGFTCHHVVRLLGVVSKGQPTLVVMELMAHGDLKSHLRSLRPDAENNPGRPPPTLQEMIQMTAEIADGMAYLNAKKFVHRDLAARNCMVAHDFTVKIGDFGMTRDIYETDYYRKGGKGLLPVRWMSPESLKDGVFTASSDMWSFGVVLWEITSLAEQPYQGLSNEQVLKFVMDGGYLDPPDNCPERLTDLMRMCWQFNPKMRPTFLEIVNLLKDDLHPSFPEVSFFYSEENKAPESEELEMEFEDMENVPLDRSSHCQREEAGGREGGSSLSIKRTYDEHIPYTHMNGGKKNGRVLTLPRSNPS

Key:
Assay in all cases: co-IP
Flag-Munc18c-Y521F = molecular target: T1, Flag-Munc18c-Y521F
Flag-Munc18c-Y219F = molecular target: T2, Flag-Munc18c-Y219F
Munc18c = molecular target: T3, Munc18c

Row | Binder | ratio syntaxin 4/Flag-Munc18c, insulin-stimulated versus basal = 1 (Flag-Munc18c-Y521F) | ratio syntaxin 4/Flag-Munc18c, insulin-stimulated versus basal = 1 (Flag-Munc18c-Y219F) | fold change of coprecipitated IR, insulin versus unstimulated (Munc18c) [fold]
1 | B1 | 1.6 | 1 | 
2 | B2 |  |  | ~2
